Experimental data reported in publication PMC4159212.

Substrate: COC1=C(OC)C(=O)C(CC=C(C)C)=C(C)C1=O
Assay: PRODH steady-state kinetics
Format: biochemical, Rhodobacter capsulatus
Conditions: 200 mM proline fixed, 23 °C, 20 mM Tris pH 8.0, 10% glycerol

B1: RcPutA (Rhodobacter capsulatus SB 1003) (protein)
chain: MTDLSALGPKAKFAPEAEVLQALVAQAALPQPQLDRIAARGADLVARIRAEAKPSLMEHFLAQYGLSTREGVALMCLAEAMLRVPDTATIDALIEDKIAPSDWGKHLGTAASSLVNASTWALMLTGKVLDDGAGGIAGTLRGAMRRLGEPVIRAAVGQAMREMGRQFVLGETIEKALERAEKREAEGYTFSYDMLGEAALTAADAERYRLAYAQAITAIGKAATRGSIAANPGISIKLSALHPRYEVAQEARVMAELVPVVRDLARAAARAGIALHIDAEEQDRLALSLRVMAAVIADPETAGWEGFGAVVQAYGKRAGAAIDALAAMARAAGRRINIRLVKGAYWDAEMKRAQVEGHPGFPLFTSKTGTDVAYICLAAKLFGLNDCIYPQFATHNAHTVAAVLEMAAGRPFEFQRLHGMGARLHDIVLRETGGRCRIYAPVGAHRDLLAYLVRRLLENGANSSFVNQIVNESVPPAEVAACPFAALPTARAPRGLLAPADLFGAGRVNAQGFDLSDPEVLARIEAARDVTLPDAAPIVAGPVSGTLRPVRNPATGAVVAQVTEADAATVALALDAAQVWSAPAATRAAVLCRAADLYEENFGPIFAALAQEAGKTLGDAVSELREAVDFLRYYAAEGAADTRPPRGAVVAISPWNFPLAIFTGQVAAALMAGNAVLAKPAEQTPIIAALAVRLLHQAGVPETALQLLPGDGPTVGAALTRDPRVAGVVFTGSTETAQIIARAMAAHLAPGTPLIAETGGLNAMVVDSTALPEQAVRDVVASAFRSAGQRCSALRCLYVQDDIAPHLIGMLKGAMEELVSGDPARLSTDVGPVIDAEAKAGIETYLAANKARILHRSTAPEGGHFVAPALLQVGGIADLEREIFGPVLHLATFAAEDLPAVIAAINARGYGLTFGLHSRIDARVETVAETIRAGNIYVNRNQIGAVVGSQPFGGEGLSGTGPKAGGPLYLNRFYAPEPVVAVGGWTEAATPILPEARETQLDEIFLPGPTGELNRLTRHQRGPILCLGPGAEAASAQAAAVVALGGQAVQASGAVSPKALETLTPLAGVLWWGAAEMGRAYAQALAVRPGPLVPLITAKPDLAHVAHERHLCVDTTAAGGNAALLAG
With B1 the Km was 94 ± 19 µM and the kcat was 2.0 ± 0.1 s⁻¹.
